Experimental data taken from publication PMC5346689.

Assays:
Test in all cases: SEC; HiLoad 26/60 Superdex 75 prep grade column; buffer B (20 mM MES, 50 mM NaCl, 10 mM CaCl2, pH 7.0); oligomeric state of each purified S100A4 protein in solution
[1] = target: S100A4 C-terminal Ca2+ binding site mutant N65I/D67A (UniProt P26447)
[2] = target: S100A4 N-terminal Ca2+-binding site mutant E23A/D25A (UniProt P26447)
[3] = target: recombinant wild-type S100A4 (UniProt P26447)

“S100A4 C-terminal Ca2+ binding site mutant N65I/D67A (from UniProt P26447 1-101) (natural protein)” was tested, and the stoichiometry N [1] was 2.

With “S100A4 N-terminal Ca2+-binding site mutant E23A/D25A (from UniProt P26447 1-101) (natural protein)” the stoichiometry N [2] was 2.

With “recombinant wild-type S100A4 (from UniProt P26447 1-101) (natural protein)” the stoichiometry N [3] was 2.
